Laboratory results reported in a protein production outcome set (Wang et al. 2014).

Experiment: label from the status in PepcDB records

Sequence | protein production
MGICVSFRREDSNSSPTVKIVTVNGDLREYNVPVIASQVLEAESAAAYSSSSSSRPSSYFICDSDSLYYDDFIPAIKSEEPLQADQIYFVLPISKRQSRLTASDMAALAVKASVAIQNSVKKESRRRKKVRISPVMMLTGSNDSVNGNGSETTVKKGRPFVSKTAPVKASSGINRSGSVRNLRRYTSKRAKLAVRSFRLKLSTIYEGSVV | failed
MLTVEPSEIQLTPGPILSLYLDLAGHLNWHIRSNLYLRGAEPRLDQKDPAAAAILELSLRLGSAPGGSVSCCWVTVSPGRMSVIDHVRDMAAAGLHSNVRLLSSLLLTMSNNNPELFSPSQKYQLLVYHADSLFHDKEYRNAVSKYTMALQQKKALSKTSKCLPSEIEVKYKMAECYTMLKLDKDAIAILDGIPSRQRTPKINMMLANLYKKAGQERPSVTSYKEVLRQCPLALDAILGLLSLSVKGAEVASMTMNVIQTVPNLDWLSVWIKAYAFVHTGDNSRAINTICSLEKKSLLRDNVDLLGSLADLYFRAGDNKNSVLKFEQAQMLDPYLIKGMDVYGYLLAREGRLEDVENLGCRLFNISDQHAEPWVVSGCHSFYSKRYSRALYLGAKAIQLNSNSVQALLLKGAALRNMGRVQEAIIHFREAIRLAPCRLDCYEGLIECYLASNSIREAMVMANNVYKTLGANAQTLTLLATVCLEDPVTQEKAKTLLDKALAQRPDYVKAVVKKAELLSREQKYEDGIALLRNALANQSDCVLHRILGDFLVSVNEYQEAMDQYSIALSLDPNDQKSLEGMQKMEKEGSPTDATQEDDVDDMEGSGEEGDLEGSDSEAAQWADQEQWFGMQ | failed
MANNTTGFTRIIKAAGYSWKGLRAAWINEAAFRQEGVAVLLAVVIACWLDVDAITRVLLISSVMLVMIVEILNSAIEAVVDRIGSEYHELSGRAKDMGSAAVLIAIIVAVITWCILLWSHFG | failed
MDTGDKEAGEQIVCKPSFFRVSDNHHHPSRAGCPLHQGQARTGSGSPRGQVAGAEKGGDEGGRRGSGGGSSEPRDRRRREQPRAAGDEDGSAGRAHGAQGHGHGGVCGARSQRPALLKPGSRRARGAGGGRMERKGLAARASGNPSPPALGEGPRPGPPPCVPSGGGAPERGQAGAAAEPAELIRRAHEFKSQGAQCYKDKKFREAIGKYHRALLELKGLLPPPGERERDARPASPAGIPKASRLSEEQSKTVEAIEIDCYNSLAACLLQAELVNYERVKEYCLKVLKKEGENFKALYRAGVAFYHLGDYDKALYYLKEARTRQPSDTNVIRYIQLTEMKLSRCSQREKEAM | failed
MSLHPNIQAVTDRIRKRSAPSRAAYLAGLDAALREGPFRSRLSCGNLAHGFAASEPGDKSRLRGAATPNLGIITAYNDMLSAHQPFEHYPQLIRETARTLGATAQVAGGVPAMCDGVTQGRAGMELSLFSRDNIAQATAIGLSHDMFDSVVYLGVCDKIVPGLLIGALAFGHLPAIFMPAGPMTPGIPNKQKAEVRERYAAGEATRAELLEAEASSYHSPGTCTFYGTANSNQVLLEAMGVQLPGASFVNPELPLRDALTREGTARALAISALGEDFRPFGRLIDERAIVNAVVALMATGGSTNHTIHWIAVARAAGIVLTWDDMDLISQTVPLLTRIYPNGEADVNRFQAAGGTAFVFRELMDAGYMHDDLPTVVEGGMRAYINEPRLQDGKVTYVPGTATTADDSVARPVGDAFESQGGLRLLRGNLGRSLIKLSAVKPQHRSIQAPAVVIDTPQVLNKLHAAGVLPHDFVVVLRYQGPRANGMPELHSMAPLLGLLQNQGRRVALVTDGRLSGASGKFPAAIHLTPEAARGGPIGRVREGDIVRLDGEAGTLEVLVSAEEWASREVAPNTSVAGNDLGRNLFAINRQVVGPADQGAISISCGPTHPDGALWSYDAEYELGADAAAAAAPHESKDA | failed
MTGALVSSEMMARAAAAAGLSDEADRPGPAPLASPSYLALESASILTDGGVFLKVMHPEMRQDFDLGAAMALARQAGEAGIGPRVLWADPAQGAIAMEALTEAGGWRRAMQVDLQEAPVLGAAMSALKALHATPALSSRFDPFAQIDGLIADYSRLGAPLPEDTGWLRRLIGAAEPVLRTGADLAPCRNDGAASNLMLGPGGAVRLVDYDRAGMNDPLYDVGALLAETTDFEREMQAGFAAYAGAFDEVAFARARLWSFVDDMLHALWSRLKARTSARGGVEWLKYGEWRLMRLRMALNHPQYEQKIRLAGGAA | failed
KREHAKQHGMIRTEITGAEIAEEMEKERRLFQLQMCEYLIKVNEIKTKKGVDLLQNLIKYYHAQCNFFQDGLKTADKLKQYIEKLAADLYNIKQTQDEEKKQLTALRDLIKSSLQLDQKESRRDSQSRQGGYSMHQLQGNKEYGSEKKGYLLKKSDGIRKVWQRRKCSVKNGILTISHATSNRQPAKLNLLTCQVKPNAEDKKSFDLISHNRTYHFQAEDEQDYVAWISVLTNSKEEALTMAFRGEQSAGENSLEDLTKAIIEDVQRLPGNDICCDCGSSEPTWLSTNLGILTCIECSGIHREMGVHISRIQSLELDKLGTSELLLAKNVGNNSFNDIMEANLPSPSPKPTPSSDMTVRKEYITAKYVDHRFSRKTCSTSSAKLNELLEAIKSRDLLALIQVYAEGVELMEPLLEPGQELGETALHLAVRTADQTSLHLVDFLVQNCGNLDKQTALGNTVLHYCSMYSKPECLKLLLRSKPTVDIVNQAGETALDIAKRLKATQCEDLLSQAKSGKFNPHVHVEYEWNLRQEEIDESDDDLDDKPSPIKKERSPRPQSFCHSSSISPQDKLALPGFSTPRDKQRLSYGAFTNQIFVSTSTDSPTSPTTEAPPLPPRNAGKGPTGPPSTLPLSTQTSSGSSTLSKKRPPPPPPGHKRTLSDPPSPLPHGPPNKGAVPWGNDGGPSSSSKTTNKFEGLSQQSSTSSAKTALGPRVLPKLPQKVALRKTDHLSLDKATIPPEIFQKSSQLAELPQKPPPGDLPPKPTELAPKPQIGDLPPKPGELPPKPQLGDLPPKPQLSDLPPKPQMKDLPPKPQLGDLLAKSQTGDVSPKAQQPSEVTLKSHPLDLSPNVQSRDAIQKQASEDSNDLTPTLPETPVPLPRKINTGKNKVRRVKTIYDCQADNDDELTFIEGEVIIVTGEEDQEWWIGHIEGQPERKGVFPVSFVHILSD | not failed
MVKLIHTLADHGDDVNCCAFSFSLLATCSLDKTIRLYSLRDFTELPHSPLKFHTYAVHCCCFSPSGHILASCSTDGTTVLWNTENGQMLAVMEQPSGSPVRVCQFSPDSTCLASGAADGTVVLWNAQSYKLYRCGSVKDGSLAACAFSPNGSFFVTGSSCGDLTVWDDKMRCLHSEKAHDLGITCCDFSSQPVSDGEQGLQFFRLASCGQDCQVKIWIVSFTHILGFELKYKSTLSGHCAPVLACAFSHDGQMLVSGSVDKSVIVYDTNTENILHTLTQHTRYVTTCAFAPNTLLLATGSMDKTVNIWQFDLETLCQARSTEHQLKQFTEDWSEEDVSTWLCAQDLKDLVGIFKMNNIDGKELLNLTKESLADDLKIESLGLRSKVLRKIEELRTKVKSLSSGIPDEFICPITRELMKDPVIASDGYSYEKEAMENWISKKKRTSPMTNLVLPSAVLTPNRTLKMAINRWLETHQK | failed
MLSVRIPGPARQAWAIVEQRPWLARRPFIIHGPPWRLASQQEDDVFKLMSRSAVKMVERYLPDPYVFVVLLTLVAAGAAMIIEGQTPMAVVRWWGNGFWGLLTFAMQMLLVLVTGYMLASTPLVKRMLARLASLATSAGGAIILVSVVSLAASWINWGFGLVVGALFAKQIARQVRVDYRLLVASAYSGFIIWHGGLAGSIPLTIATEGHFSADKIGIIPTGDTIFAVFNLVIVVAMFILVPLVNRLMLPDEKESVYVDPARLEEASVPASDDDKRPAARLENSRLLAWLIAAGGLAYMFDYYVVRGAGLNLNVINFSFLILAILLHGTPRRLLTSLDEAIKGGAGIVIQFPFYAGIMAIMMDSGLAATLSEWFVSIASAATLPFWTFISAGIVNIFIPSGGGQWAVQSPIVISAAQALGADMPRVAMAVAWGDAWTNMLQPFWALPVLAIAGLKAKDIMGYCIIQLLVTGVIISVGLSFF | failed
STSPTATKYDVFLSFRGVDTRRNFISFLYKEFVRRKIRTFKDDKELENGRRISPELKRAIEESKFAVVVVSVNYAASPWCLDELVKIMDFENKGSITVMPIFYGVDPCHLRRQIGDVAEQFKKHEAREEDHEKVASWRRALTSLASISGDCSSKCEDEAKLVDEIADKISKNLMTVTTISNGKNLVGIDTHMKALNKKLDLNSNKSLRVVGIWARGYNGRSALAKYVYQDICHHFDSHCFLGSVKRISQGRHLSHLHEEFLIRIQGSKHNLKDQKVLLVADDVYKLEQLDALAEDFNGFGPGSVVIITTQDKHLFVSAGIKLVYEVELLKFQKVCELFRQFAFKKRDISAAVKLVYYRATNWLGCLSGRSG | failed
MTTLTAQQIACVYAWLAQLFSRELDDEQLTQIASAQMAEWFSLLKNEPPLTAAVNELENRIATLTVRDDARLELAADFCGLFLMTDKQAALPYASAYKQDEQEIKRLLVEAGMETSGNFNEPADHLAIYLELLSHLHFSLGEGTVPARRIDSLRQKTLTALWQWLPEFVARCRQYDSFGFYAALSQLLLVLVECDHQNR | failed
MGSSARFRGRTDTMLLTRFNPENGTITVLSIPRDTRVEIPGYGTSKINAANVYGDVELTVQVVSQTLNYTPIDRYIRINTDAFRELVDLVGGVEVNVPKRMVYTDHTQKLYIDLQPGLQTLNGEQAEGFVRFRYDELGDIGRAQRQQLLIKALQEKLANPVMLTQLPKLYSVLQKYVDTDLTFAELMAIAQFSLRIQPDNLHLILLPGHFSGDGYGTSYWLPDYDRIDRVVAEHFSDRPSKLVDQRGSETGTLRIALQNASGSSGAAQDMADFLARHGYTNVLISEDWYQQTSETEIVAQQGDLGAAQVIRSVLGMGRVSANSTGVLSSDITIRIGRDWAAVLHLEHHHHHH | failed
MSLIPKVSVIVPIYNVEKYLDQCVQALLAQTLSDIEIILIDDESPDNCPKICDDYAAQYPNIKVIHKKNAGLGMACNSGLDVATGEYVAFCDSDDYVDSDMYMTMYNVAQKYTCDAVFTGLKRITMAGIPTGTVTHQKEFKLYKNKNEIHTLLKDLIASDPYAREERAIQVSAKVVLYRRNLIEKKHLRFVSERILPSEDLIFNVDVLANSNIVCVLPQTFYNYRTNPISISEGHHHHHH | not failed
MVINRKIIGSYTQRQIAALLTDEPPSEQPKCNVRVVEMTYTTVGVVGEPARASGVVLVPDGPQCPGPYPVLGWGSATETLRSAEQAKGIISANGDDPLVTRLASQGYVVVSTDYLGLGGSNYPYHPYLHANSEASALIDALRASRTVLQHLNTPLSNKLMLSGFSQGGHTAMATQREIEAHLSNEFSLVASAPISGPYALSQTFLDTWTGRNEVGENNFAIILGTYAIVGMQRTYRNIYSDPSQVFQDPWANQVEALFPGKKDTTDLFLGDDLPAIDQIKEYFQPGFYSDFPKNRKNPFFVDLVRNDLLNWAPRTPTLLCGSDNDTVVPFLKNTNLAIASFKKRGSRQVSVVDIGTGNRKDNSALTHLSSEELCIVKVRNEFLEKKR | failed
MMIIGINGSPRKNGNTIEMLKSALDGAKAQGAETELINLYDYNYKGCVSCFSCKLKGGRSYGKCALKDDLKPILEKIEKADAFILASPIYFGMVTGEMRSFMERLLFQYLVYDKDHSSLFNRKIKTGFIYTMNVPETYLDSVGYNKLFESNEATLKRIFGASEYILSTDTYQFDDYSKYEASMFDVEAKKKRREEVFPEDCKRAYEMGASFVKLEHHHHHH | failed
MSQNLQPPIPLLVPETAPFSEEQRAWLNGFFAGLVSLDGQGVTALSPDQAAALLAGGPAPVAEDDDGGAPWHDQSLPIGERMQLAEGKPLRWKLMAAMAQQDCGQCGYDCRNYSGAIFDGQETRLNLCAPGGKDTARMVKTLTEQIGAAPTLDNAPSLAADAAPVVALPPRGTSRDNPATAKVLSRKRLNKPGSEKETWHVEFELEDCLSYEAGDSFGLFPTNDPALVDAVLHALGAPAEFPIAQSTLRQTLLDSVSLSPAPDMLFQLISYITGGDKRKKARSLASGEDPDGDAATLDVLAALEKFPGLRPDPEAFIEALDPLQPRLYSISSSPKTTPGRLSLTVDCVRYAIGKRQRLGVCSTGLAERVRPGETLRAYVQKAHHFALPSDPNQPIIMIGPGTGIAPFRAFLHERQAIQAPGKNWLFFGHQRSASDFFYEDELKAMKTAGHLTRLTLAWSRDSGEKIYVQDRIREVGRDLWSWLAEGASLYVCGDAKRMAKDVERALVDIVAQHGARSAAEATAFVSELKKQGRYQQDVY | failed
